Where a chain is given by its changes, count along the chain named.
B1: MX1070 (protein)
chain 1: QTVVTQEPSFSVSPGGTVTLTCGLSSGSVSTAYFPSWYQQTPGQAPRTLIYGTNTRSSGVPDRFSGSILGNKAALTITGAQADDESDYYCVLYMGRGIVVFGGGTKLTVLGGSSGEIVLTQSPGTLSLSPGETATLSCRASQSFSSDLAWYQQKPGQAPRLLIYGASSRATGIPDRFSGSGSGTDFTLTISRLEPADFAVYYCQQYGSSPPVTFGGGTKVEIKGGGGSGGSGSGGGGSASGSGEVQLVESGGGLIQPGGSLRLSCAASGVIVSYNYMNWVRQAPGKGLEWVSVIYSGGSTFYADSVRGRFTISRDNSKNTLYLQMNSLRAEDTAVYYCARDLGPAGAFDIWGLGTMVTVSSGGSSGQVQLVESGGGVVQPGRSLRLSCAASGFTLSSYGMHWVRQAPGKGLEWVAVISYDGSNKYYVDSVKGRFTISRDNSKNTLYLQMNSLRAEDTAVYYCRWAYWELLPDYYYGMDVWGQGTTVTVSSASGGSGDKTHTCPPCPAPELLGGPSVFLFPPKPKDTLMISRTPEVTCVVVDVSHEDPEVKFNWYVDGVEVHNAKTKPREEQYNSYVVSVLTVLHQDWLNGKEYKCKVSNKALPAPIEKTISKAKGQPREPQVYTLPPCRDELTKNQVSLWCLVKGFYPSDIAVEWESNGQPENNYKTTPPVLDSDGSFFKKLTVDKSRWQQGNVFSCSVLHEALHSHYTQKSLSLSPG
chain 2: DTVMTQSPLSLPVTPGEPASISCRSSQSLLNSNGYNYLDWYVQKPGQSPQLLIYLGSNRASGVPDRFSGSGSGTDFTLKISRVEAEDVGVYYCMQPLQTPLFTFGPGTKVEIKGGSSGEIVLTQSPGTLSLSPGETATLSCRASQSFSSDLAWYQQKPGQAPRLLIYGASSRATGIPDRFSGSGSGTDFTLTISRLEPADFAVYYCQQYGSSPPVTFGGGTKVEIKGGGGSGGSGSGGGGSASGSGEVQLVESGGGLIQPGGSLRLSCAASGVIVSYNYMNWVRQAPGKGLEWVSVIYSGGSTFYADSVRGRFTISRDNSKNTLYLQMNSLRAEDTAVYYCARDLGPAGAFDIWGLGTMVTVSSGGSSGQVTLRESGPALVKPTQTLTLTCTFSGFSLSTRGVCVSWIRQPPGKALEWLAFIDWDDDKYYNTSLKTRLTISKDTSKNQVVLTMTNVHPVDTATYYCARISSHHGSSWCTTFDYWGQGALVTVSAASGGSGDKTHTCPPCPAPELLGGPSVFLFPPKPKDTLMISRTPEVTCVVVDVSHEDPEVKFNWYVDGVEVHNAKTKPREEQYNSYVVSVLTVLHQDWLNGKEYKCKVSNKALPAPIEKTISKAKGQPREPQVCTLPPSRDELTKNQVSLSCAVKGFYPSDIAVEWESNGQPENNYKTTPPVLDSDGSFFLVSKLTVDKSRWQQGNVFSCSVLHEALHSHYTQKSLSLSPG
B2: MX1073 (protein)
chain 1: B1 chain 1
chain 2: QTVVTQEPSFSVSPGGTVTLTCGLSSGSVSTAYFPSWYQQTPGQAPRTLIYGTNTRSSGVPDRFSGSILGNKAALTITGAQADDESDYYCVLYMGRGIVVFGGGTKLTVLGGSSGDTVMTQSPLSLPVTPGEPASISCRSSQSLLNSNGYNYLDWYVQKPGQSPQLLIYLGSNRASGVPDRFSGSGSGTDFTLKISRVEAEDVGVYYCMQPLQTPLFTFGPGTKVEIKGGGGSGGSGSGGGGSASGSGQVTLRESGPALVKPTQTLTLTCTFSGFSLSTRGVCVSWIRQPPGKALEWLAFIDWDDDKYYNTSLKTRLTISKDTSKNQVVLTMTNVHPVDTATYYCARISSHHGSSWCTTFDYWGQGALVTVSAGGSSGQVQLVESGGGVVQPGRSLRLSCAASGFTLSSYGMHWVRQAPGKGLEWVAVISYDGSNKYYVDSVKGRFTISRDNSKNTLYLQMNSLRAEDTAVYYCRWAYWELLPDYYYGMDVWGQGTTVTVSSASGGSGDKTHTCPPCPAPELLGGPSVFLFPPKPKDTLMISRTPEVTCVVVDVSHEDPEVKFNWYVDGVEVHNAKTKPREEQYNSYVVSVLTVLHQDWLNGKEYKCKVSNKALPAPIEKTISKAKGQPREPQVCTLPPSRDELTKNQVSLSCAVKGFYPSDIAVEWESNGQPENNYKTTPPVLDSDGSFFLVSKLTVDKSRWQQGNVFSCSVLHEALHSHYTQKSLSLSPG
B3: MX1021 (bispecific antibody)
chain: QTVVTQEPSFSVSPGGTVTLTCGLSSGSVSTAYFPSWYQQTPGQAPRTLIYGTNTRSSGVPDRFSGSILGNKAALTITGAQADDESDYYCVLYMGRGIVVFGGGTKLTVLGGSSGEIVMTQSPAILSVSPGERATLSCRASQSVAINLAWYQQKPGQAPRLLIYAASSRATGIPGRFSGSGSETNFTLTISSLQSGDFAVYYCQQYITWPPSYTFGQGTKLEIKGGGGSGGSGSGGGGSASGSGEVQLVESGGALIQPGGSLRLSCAASGIIVSANYMSWVRQAPGKGLEWVSVIYSGGSTFYADSVKGRFTISRDNSKNTLYLEMNSLRAEDTAVYYCARDAPILGVSDWGQGTLVTVSSGGSSGQVQLVESGGGVVQPGRSLRLSCAASGFTLSSYGMHWVRQAPGKGLEWVAVISYDGSNKYYVDSVKGRFTISRDNSKNTLYLQMNSLRAEDTAVYYCRWAYWELLPDYYYGMDVWGQGTTVTVSSASGGSGDKTHTCPPCPAPELLGGPSVFLFPPKPKDTLMISRTPEVTCVVVDVSHEDPEVKFNWYVDGVEVHNAKTKPREEQYNSYVVSVLTVLHQDWLNGKEYKCKVSNKALPAPIEKTISKAKGQPREPQVYTLPPSRDELTKNQVSLTCLVKGFYPSDIAVEWESNGQPENNYKTTPPVLDSDGSFFKKLTVDKSRWQQGNVFSCSVLHEALHSHYTQKSLSLSPG
B4: MX1022 (bispecific antibody)
chain: DTVMTQSPLSLPVTPGEPASISCRSSQSLLNSNGYNYLDWYVQKPGQSPQLLIYLGSNRASGVPDRFSGSGSGTDFTLKISRVEAEDVGVYYCMQPLQTPLFTFGPGTKVEIKGGSSGEIVMTQSPAILSVSPGERATLSCRASQSVAINLAWYQQKPGQAPRLLIYAASSRATGIPGRFSGSGSETNFTLTISSLQSGDFAVYYCQQYITWPPSYTFGQGTKLEIKGGGGSGGSGSGGGGSASGSGEVQLVESGGALIQPGGSLRLSCAASGIIVSANYMSWVRQAPGKGLEWVSVIYSGGSTFYADSVKGRFTISRDNSKNTLYLEMNSLRAEDTAVYYCARDAPILGVSDWGQGTLVTVSSGGSSGQVTLRESGPALVKPTQTLTLTCTFSGFSLSTRGVCVSWIRQPPGKALEWLAFIDWDDDKYYNTSLKTRLTISKDTSKNQVVLTMTNVHPVDTATYYCARISSHHGSSWCTTFDYWGQGALVTVSAASGGSGDKTHTCPPCPAPELLGGPSVFLFPPKPKDTLMISRTPEVTCVVVDVSHEDPEVKFNWYVDGVEVHNAKTKPREEQYNSYVVSVLTVLHQDWLNGKEYKCKVSNKALPAPIEKTISKAKGQPREPQVYTLPPSRDELTKNQVSLTCLVKGFYPSDIAVEWESNGQPENNYKTTPPVLDSDGSFFKKLTVDKSRWQQGNVFSCSVLHEALHSHYTQKSLSLSPG
B5: MX1041 (bispecific antibody)
chain: B1 chain 1 with C628S, W640T

Experiments:
Experiment in all cases: cell-based or functional assay
[1] = biological target: SARS-CoV-2 spike protein, Omicron variant BA.2.75.2 (SARS-CoV-2)
[2] = biological target: SARS-CoV-2 spike protein, Omicron variant BA.4/5 (SARS-CoV-2)
[3] = biological target: SARS-CoV-2 spike protein, Omicron variant BQ.1 (SARS-CoV-2)
[4] = biological target: SARS-CoV-2 spike protein, Omicron variant BQ.1.1 (SARS-CoV-2)
[5] = biological target: SARS-CoV-2 spike protein, Omicron variant XBB (SARS-CoV-2)
[6] = biological target: SARS-CoV-2 Delta variant spike protein (SARS-CoV-2)
[7] = biological target: SARS-CoV-2 Omicron variant B.1.1.529 spike protein (SARS-CoV-2)
[8] = biological target: SARS-CoV-2 Omicron variant BA.2.75.2 spike protein (SARS-CoV-2)
[9] = biological target: SARS-CoV-2 Omicron variant BA.4.6 spike protein (SARS-CoV-2)
[10] = biological target: SARS-CoV-2 Omicron variant BA.4/5 spike protein (SARS-CoV-2)
[11] = biological target: SARS-CoV-2 Omicron variant BF.7 spike protein (SARS-CoV-2)
[12] = biological target: SARS-CoV-2 Omicron variant BQ.1 spike protein (SARS-CoV-2)
[13] = biological target: SARS-CoV-2 Omicron variant BQ.1.1 spike protein (SARS-CoV-2)
[14] = biological target: SARS-CoV-2 Omicron variant XBB spike protein (SARS-CoV-2)

| Binder | IC50, pseudovirus neutralization [1] | IC80, pseudovirus neutralization [1] | IC50, pseudovirus neutralization [2] | IC80, pseudovirus neutralization [2] | IC50, pseudovirus neutralization [3] | IC80, pseudovirus neutralization [3] | IC50, pseudovirus neutralization [4] | IC80, pseudovirus neutralization [4] | IC50, pseudovirus neutralization [5] | IC80, pseudovirus neutralization [5] | IC50, pseudovirus neutralization [6] | IC80, pseudovirus neutralization [6] | IC50, pseudovirus neutralization [7] | IC80, pseudovirus neutralization [7] | IC50, pseudovirus neutralization [8] | IC80, pseudovirus neutralization [8] | IC50, pseudovirus neutralization [9] | IC80, pseudovirus neutralization [9] | IC50, pseudovirus neutralization [10] | IC80, pseudovirus neutralization [10] | further results |
| --- | --- | --- | --- | --- | --- | --- | --- | --- | --- | --- | --- | --- | --- | --- | --- | --- | --- | --- | --- | --- | --- |
| B1 | 2.4 ng/mL | 4.16 ng/mL | 2.49 ng/mL | 3.58 ng/mL | 4.64 ng/mL | 9.16 ng/mL | 4.06 ng/mL | 11 ng/mL | 2.9 ng/mL | 9.71 ng/mL |  |  |  |  |  |  |  |  |  |  |  |
| B2 | 1.81 ng/mL | 3.35 ng/mL | 2.78 ng/mL | 4.28 ng/mL | 1.9 ng/mL | 10.8 ng/mL | 5.77 ng/mL | 24.1 ng/mL | 9.3 ng/mL | 24 ng/mL |  |  |  |  |  |  |  |  |  |  |  |
| B3 |  |  |  |  |  |  |  |  |  |  | 64.8 ng/mL | 219 ng/mL | 2.91 ng/mL | 13.1 ng/mL | 3.73 ng/mL | 13.2 ng/mL | 12.9 ng/mL | 41.4 ng/mL | 13.8 ng/mL | 26 ng/mL | IC50, pseudovirus neutralization [11]: 11.3 ng/mL; IC80, pseudovirus neutralization [11]: 31.7 ng/mL; IC50, pseudovirus neutralization [12]: 11.3 ng/mL; IC80, pseudovirus neutralization [12]: 51.9 ng/mL; IC50, pseudovirus neutralization [13]: 2.77 ng/mL; IC80, pseudovirus neutralization [13]: 28.5 ng/mL; IC50, pseudovirus neutralization [14]: 14.7 ng/mL; IC80, pseudovirus neutralization [14]: 61.1 ng/mL |
| B4 |  |  |  |  |  |  |  |  |  |  | 31.5 ng/mL | 25.4 ng/mL | 4.22 ng/mL | 4.74 ng/mL | 0.89 ng/mL | 2.8 ng/mL | 4.9 ng/mL | 8.82 ng/mL | 1.98 ng/mL | 3.33 ng/mL | IC50, pseudovirus neutralization [11]: 2.38 ng/mL; IC80, pseudovirus neutralization [11]: 8.29 ng/mL; IC50, pseudovirus neutralization [12]: 6.58 ng/mL; IC80, pseudovirus neutralization [12]: 19.2 ng/mL; IC50, pseudovirus neutralization [13]: 1.13 ng/mL; IC80, pseudovirus neutralization [13]: 6.72 ng/mL; IC50, pseudovirus neutralization [14]: 5.85 ng/mL; IC80, pseudovirus neutralization [14]: 12.4 ng/mL |
| B5 |  |  |  |  |  |  |  |  |  |  | 29.1 ng/mL | 48.5 ng/mL | 4.14 ng/mL | 8.81 ng/mL |  |  |  |  |  |  |  |

— US20240109955A1
